Measurements taken from article PMC5080701, “TIS7 induces transcriptional cascade of methylosome components required for muscle differentiation”.

B1: ICln promoter minimal essential region (-154/-113), EMSA probe (dsDNA)
DNA 1: TAGAATGTCTCATCTCTATGGTCGACGGCGTTCAGATTCCG
DNA 2: CGGAATCTGAACGCCGTCGACCATAGAGATGAGACATTCTA
B2: ICln promoter minimal essential region (-154/-113), SPR (dsDNA)
DNA 1: B1 DNA 1
DNA 2: B1 DNA 2

Key:
[1] = molecular target: T1, GST-TIS7 (TPA Induced Sequence 7) (mouse, UniProt P19182 1-449); test: EMSA; blocked by 20-fold excess of unlabelled oligonucleotide; supershifted by TIS7 antibody; EMSA: 1 ug probe, 10 min, 5% native PAGE (50 mM Tris pH 7.5, 0.38 M glycine, 2 mM EDTA; run in TBE), binding buffer not stated; SPR: Biacore X100, SA chip, oligos annealed in 30 mM Na3PO4, 200 mM NaCl, 1 mM DTT pH 7.2, protein dialyzed in 50 mM Tris pH 7.4, 150 mM NaCl; running buffer and temperature not stated; conditions: protein: recombinant; tags: N-terminal GST; blunt
T1 sequence: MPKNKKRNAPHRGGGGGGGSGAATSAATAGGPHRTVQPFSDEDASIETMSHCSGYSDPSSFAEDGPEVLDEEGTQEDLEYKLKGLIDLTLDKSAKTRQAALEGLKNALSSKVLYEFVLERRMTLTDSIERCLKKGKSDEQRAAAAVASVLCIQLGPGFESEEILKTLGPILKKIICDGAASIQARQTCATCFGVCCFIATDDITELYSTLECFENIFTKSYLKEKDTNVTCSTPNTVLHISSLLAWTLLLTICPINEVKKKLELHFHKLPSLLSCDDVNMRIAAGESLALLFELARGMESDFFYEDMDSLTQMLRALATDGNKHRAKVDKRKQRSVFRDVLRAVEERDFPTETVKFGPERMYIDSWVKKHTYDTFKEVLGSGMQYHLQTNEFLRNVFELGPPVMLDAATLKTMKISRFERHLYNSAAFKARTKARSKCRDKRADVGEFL

[2] = molecular target: T1, GST-TIS7 (TPA Induced Sequence 7); test: SPR; Kd value printed only in Fig. 4d; 10-fold difference in Kd between native and scrambled sequence; EMSA: 1 ug probe, 10 min, 5% native PAGE (50 mM Tris pH 7.5, 0.38 M glycine, 2 mM EDTA; run in TBE), binding buffer not stated; SPR: Biacore X100, SA chip, oligos annealed in 30 mM Na3PO4, 200 mM NaCl, 1 mM DTT pH 7.2, protein dialyzed in 50 mM Tris pH 7.4, 150 mM NaCl; running buffer and temperature not stated; conditions: protein: recombinant; tags: N-terminal GST; label: 5'-biotin on sense strand; blunt

Row | Binder | binding result [1] | binding result [2]
1 | B1 | binds | –
2 | B2 | – | binds
